This is an account of results in publication PMC1764712, “Recruitment and Activation of RSK2 by HIV-1 Tat” (PLoS ONE, 2007).

Test [1] addresses Endogenous RSK2 of Cos7 cells (African green monkey (endogenous in Cos7)).
Test [2] has as its target T1, Full-length human recombinant RSK2 isolated from insect cells (human, UniProt P51812 1-740).
T1 construct: Human ribosomal S6 protein kinase 2 (RSK2), full length; also called full-length recombinant RSK2; source: bought: Upstate Biotechnology (isolated from insect cells)
Briefly: pull-down; GST proteins immobilised on glutathione-sepharose, incubated with 200 ng human recombinant RSK2; binding buffer 20 mM Hepes pH 7.9, 1% Triton, 0.5% NP-40, 200 mM KCl; washes with 1 M KCl; western blot with α-RSK2. The settings on record: both partners purified. (In general: In western blotting, separated proteins are transferred to a membrane and probed.)

T1 sequence (P51812 whole entry): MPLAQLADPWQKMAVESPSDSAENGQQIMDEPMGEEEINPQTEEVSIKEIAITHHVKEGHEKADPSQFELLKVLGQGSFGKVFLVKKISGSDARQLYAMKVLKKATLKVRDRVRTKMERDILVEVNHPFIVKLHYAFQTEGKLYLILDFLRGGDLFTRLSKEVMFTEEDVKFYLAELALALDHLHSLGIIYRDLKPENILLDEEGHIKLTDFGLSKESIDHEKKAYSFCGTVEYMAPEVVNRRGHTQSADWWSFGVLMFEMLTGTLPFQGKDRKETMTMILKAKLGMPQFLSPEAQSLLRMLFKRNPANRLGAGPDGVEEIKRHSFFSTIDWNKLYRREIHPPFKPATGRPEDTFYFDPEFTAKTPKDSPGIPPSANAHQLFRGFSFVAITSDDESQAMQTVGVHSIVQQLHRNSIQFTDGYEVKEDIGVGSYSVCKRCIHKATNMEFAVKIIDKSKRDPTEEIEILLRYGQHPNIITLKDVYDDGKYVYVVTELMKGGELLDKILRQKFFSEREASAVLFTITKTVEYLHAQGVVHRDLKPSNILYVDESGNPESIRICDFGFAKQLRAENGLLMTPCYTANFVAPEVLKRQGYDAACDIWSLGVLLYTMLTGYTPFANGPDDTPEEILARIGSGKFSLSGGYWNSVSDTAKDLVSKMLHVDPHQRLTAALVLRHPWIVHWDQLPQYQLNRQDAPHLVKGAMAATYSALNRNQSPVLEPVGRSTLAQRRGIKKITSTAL

“Full-length Tat (101 amino acids) bearing a C-terminal FLAG tag (natural protein)”: in test [1], the S6 peptide phosphorylation assay of endogenous RSK2 immunoprecipitated from Cos7 cells transfected with Tat was 3 fold.

B1: GST-Tat 1–86 (natural protein)
chain: MEPVDPRLEPWKHPGSQPKTACTNCYCKKCCFHCQVCFITKALGISYGRKKRRQRRRAHQNSQTHQASLSKQPTSQPRGDPTGPKE
notes: HIV-1 Tat amino acids 1-86; also called GST-Tat (amino acids 1–86); recombinant Tat (amino acids 1–86) fused to the C-terminus of GST; source: E. coli BL21, purified (glutathione-sepharose); not shown: GST, N-terminal, kept
Take B1: the binding result in test [2] is listed as “binds”.
